# Assays:
# [1] = biological target: T1, human single-chain CD1a-β2M recombinant protein (Human B2M-CD1a ECD-Avi-His6) (human); assay: SPR (Biacore), IgG; antigen taken as human CD1a
# T1 construct: Biotinylated in the HTRF, phage selection and Gyrolab assays; also called human CD1a; CD1a protein
# [2] = biological target: human CD1a expressed on cells (human, UniProt P06126 17-327); assay: cell-based or functional assay
# human CD1a expressed on cells, sequence (P06126 17-327): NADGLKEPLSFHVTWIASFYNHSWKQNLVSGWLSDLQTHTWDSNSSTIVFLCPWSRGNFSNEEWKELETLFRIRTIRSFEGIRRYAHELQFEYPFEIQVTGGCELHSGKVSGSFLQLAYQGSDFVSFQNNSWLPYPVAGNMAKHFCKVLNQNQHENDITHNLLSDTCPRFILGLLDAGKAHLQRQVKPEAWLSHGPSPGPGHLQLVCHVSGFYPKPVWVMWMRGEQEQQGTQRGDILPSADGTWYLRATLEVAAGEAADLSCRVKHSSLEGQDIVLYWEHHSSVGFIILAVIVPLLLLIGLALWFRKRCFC
# T1 sequence (chain, as listed by the source limits assumed): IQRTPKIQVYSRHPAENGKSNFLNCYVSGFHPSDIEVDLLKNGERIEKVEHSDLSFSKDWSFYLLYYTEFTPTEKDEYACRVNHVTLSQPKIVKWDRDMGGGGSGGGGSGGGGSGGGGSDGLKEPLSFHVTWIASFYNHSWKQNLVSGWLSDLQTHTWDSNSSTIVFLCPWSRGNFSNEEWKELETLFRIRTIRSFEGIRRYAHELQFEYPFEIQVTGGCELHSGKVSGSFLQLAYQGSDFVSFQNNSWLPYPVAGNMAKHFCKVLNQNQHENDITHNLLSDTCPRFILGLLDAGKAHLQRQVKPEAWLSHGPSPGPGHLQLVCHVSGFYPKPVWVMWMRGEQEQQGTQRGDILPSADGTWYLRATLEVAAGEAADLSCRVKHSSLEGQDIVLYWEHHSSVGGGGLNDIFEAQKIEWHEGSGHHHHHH
Binder,Kd [1] [nM],"Inhibition of CD69 expression, IC50 [2] [nM]"
"Ab556 (antibody, human IgG1, kappa, V domains shown, Optimized variant of Ab138; human IgG1 effector null / kappa; HC with or without terminal lysine) VH: EVQLVESGGGLVQPGGSLRLSCAASGFTFTDHYMHWVRQAPGKGLEWVAFIRNSAGGYTTESNPAVKGRFTISRDNAKNSLYLQMNSLRAEDTAVYYCARETTRIPTGWFAYWGQGTLVTVSS VL: DIQMTQSPSSLSASVGDRVTITCLASEDIYFDLAWYQQKPGKAPKLLIYGGDRLKEGVPSRFSGSGSGTDYTLTISSLQPEDFATYYCQQSESYPYTFGQGTKLEIKR",0.1,0.73
"Ab555 (antibody, human IgG1, kappa, V domains shown, Optimized variant of Ab138; human IgG1 effector null / kappa; HC with or without terminal lysine) VH: EVQLVESGGGLVQPGGSLRLSCAASGFTFTDHYMHWVRQAPGKGLEWVAFIRNSAGGYTTESNPAVKGRFTISRDNAKNSLYLQMNSLRAEDTAVYYCARETTRIPTGWFAYWGQGTLVTVSS VL: DIQMTQSPSSLSASVGDRVTITCLASEDIYFDLAWYQQKPGKAPKLLIYGGDRLKEGVPSRFSGSGSGTDYTLTISSLQPEDFATYYCQQSYSYPYTFGQGTKLEIKR",0.27,0.99
"Ab559 (antibody, human IgG1, kappa, V domains shown, Optimized variant of Ab138; human IgG1 effector null / kappa; HC with or without terminal lysine) VH: EVQLVESGGGLVQPGGSLRLSCAASGFTFTDHYMHWVRQAPGKGLEWVAFIRNKAGGYTTESNPAVKGRFTISRDNAKNSLYLQMNSLRAEDTAVYYCARETTTIPTGWFAYWGQGTLVTVSS VL: DIQMTQSPSSLSASVGDRVTITCLASEDIYFDLAWYQQKPGKAPKLLIYGGDRLKEGVPSRFSGSGSGTDYTLTISSLQPEDFATYYCQQSYSYPYTFGQGTKLEIKR",0.39,1.29

# More lines, in order of falling Kd [1], values ahead:
Kd [1] [nM],"Inhibition of CD69 expression, IC50 [2] [nM]",Binder
0.77,1.18,"Ab492 (antibody, human IgG1, kappa, V domains shown, Optimized variant of Ab138; human IgG1 effector null / kappa; HC with or without terminal lysine) VH: EVQLVESGGGLVQPGGSLRLSCAASGFTFTDHYMTWVRQAPGKGLEWVAFIRNKANGYTTESNPAVKGRFTISRDNAKNSLYLQMNSLRAEDTAVYYCARETTGIPTGWFAYWGQGTLVTVSS VL: DIQMTQSPSSLSASVGDRVTITCLASEDIYFDLAWYQQKPGKAPKLLIYGGDRLKEGVPSRFSGSGSGTDYTLTISSLQPEDFATYYCQQSESYPYTFGQGTKLEIKR"
0.62,1.18,"Ab491 (antibody, human IgG1, kappa, V domains shown, Optimized variant of Ab138; human IgG1 effector null / kappa; HC with or without terminal lysine) VH: EVQLVESGGGLVQPGGSLRLSCAASGFTFTDHYMTWVRQAPGKGLEWVAFIRNKANGYTTESNPAVKGRFTISRDNAKNSLYLQMNSLRAEDTAVYYCARETTGIPTGWFAYWGQGTLVTVSS VL: DIQMTQSPSSLSASVGDRVTITCLASEDIYFDLAWYQQKPGKAPKLLIYGGDRLKEGVPSRFSGSGSGTDYTLTISSLQPEDFATYYCQQSYSYPYTFGQGTKLEIKR"
0.53,1.69,"Ab504 (antibody, human IgG1, kappa, V domains shown, Optimized variant of Ab138; human IgG1 effector null / kappa; HC with or without terminal lysine) VH: EVQLVESGGGLVQPGGSLRLSCAASGFTFTDHYMHWVRQAPGKGLEWVAFIRNKAGGYTTESNPAVKGRFTISRDNAKNSLYLQMNSLRAEDTAVYYCARETTGIPTGWFAYWGQGTLVTVSS VL: DIQMTQSPSSLSASVGDRVTITCLASEDIYFDLAWYQQKPGKAPKLLIYGGDRLKDGVPSRFSGSGSGTDYTLTISSLQPEDFATYYCQQSESYPYTFGQGTKLEIKR"
0.35,1.61,"Ab560 (antibody, human IgG1, kappa, V domains shown, Optimized variant of Ab138; human IgG1 effector null / kappa; HC with or without terminal lysine) VH: EVQLVESGGGLVQPGGSLRLSCAASGFTFTDHYMHWVRQAPGKGLEWVAFIRNKAGGYTTESNPAVKGRFTISRDNAKNSLYLQMNSLRAEDTAVYYCARETTTIPTGWFAYWGQGTLVTVSS VL: DIQMTQSPSSLSASVGDRVTITCLASEDIYFDLAWYQQKPGKAPKLLIYGGDRLKEGVPSRFSGSGSGTDYTLTISSLQPEDFATYYCQQSESYPYTFGQGTKLEIKR"
0.28,0.99,"Ab514 (antibody, human IgG1, kappa, V domains shown, Optimized variant of Ab138; human IgG1 effector null / kappa; HC with or without terminal lysine) VH: EVQLVESGGGLVQPGGSLRLSCAASGFTFTDHYMHWVRQAPGKGLEWVAFIRNSAGGYTTESNPAVKGRFTISRDNAKNSLYLQMNSLRAEDTAVYYCARETTRIPTGWFAYWGQGTLVTVSS VL: DIQMTQSPSSLSASVGDRVTITCLASEDIYFDLAWYQQKPGKAPKLLIYGASTPKDGVPSRFSGSGSGTDYTLTISSLQPEDFATYYCQQSEKYPYTFGQGTKLEIKR"

# — US20220112291A1 (Pfizer, published 2022)
